In paper PMC6884320:

Tested on: Glu92
Assay: kinetics

For “AlleyCat2 (second-round evolved AlleyCat) (M144R; other substitutions not stated (includes the AlleyCat mutation that gives Glu92))”, the pKa (not stated (Figure S14 not available), Ca2+-bound, turning over leflunomide) is listed as 7.06 ± 0.02 and the pKa (turning over the Kemp elimination substrate, cited from earlier work) is listed as 6.73 ± 0.03.
